The source of these data is US20230346916A1.

In assay [1] the target is soluble human DPP4 (sDPP4) receptor (human) (UniProt P27487). The experiment in a line: ELISA, RBD-Fc coated at 1 µg/ml, sDPP4 serially diluted. On the technique in general: In an ELISA, binding on a coated surface is turned into a signal by an enzyme label.
For assay [2], the target named is bat ACE2 (bACE2) receptor transiently expressed on 293T cells (bat).

Chain of soluble human DPP4 (sDPP4) receptor (human) (P27487 39-766 limits assumed): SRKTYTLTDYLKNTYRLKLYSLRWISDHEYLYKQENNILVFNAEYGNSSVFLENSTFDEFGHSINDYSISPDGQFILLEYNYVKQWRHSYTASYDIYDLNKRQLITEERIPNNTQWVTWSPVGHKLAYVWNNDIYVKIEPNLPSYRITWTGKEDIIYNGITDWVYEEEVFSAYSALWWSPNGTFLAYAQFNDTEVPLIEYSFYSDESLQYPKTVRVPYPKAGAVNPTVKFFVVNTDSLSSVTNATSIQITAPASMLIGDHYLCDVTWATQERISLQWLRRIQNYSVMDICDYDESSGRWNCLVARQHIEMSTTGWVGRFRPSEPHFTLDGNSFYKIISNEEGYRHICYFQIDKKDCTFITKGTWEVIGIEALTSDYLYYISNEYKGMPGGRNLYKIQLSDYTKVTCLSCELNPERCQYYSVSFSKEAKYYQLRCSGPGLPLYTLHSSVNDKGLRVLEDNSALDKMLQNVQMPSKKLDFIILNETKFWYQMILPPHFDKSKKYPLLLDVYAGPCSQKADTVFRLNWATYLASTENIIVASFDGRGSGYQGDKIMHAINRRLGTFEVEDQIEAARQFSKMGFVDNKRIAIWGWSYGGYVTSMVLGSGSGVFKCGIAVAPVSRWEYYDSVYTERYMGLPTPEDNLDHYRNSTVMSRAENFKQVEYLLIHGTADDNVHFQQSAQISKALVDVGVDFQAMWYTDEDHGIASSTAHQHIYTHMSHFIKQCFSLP

What is called EC50 is the concentration needed to bring the measured effect to its halfway point. A higher EC50 goes with a need for much substance. For the substance “MERS-CoV RBD-Fc fusion protein (residues 377-588 of MERS-CoV S protein with a C-terminal hFc) (from UniProt K9N5Q8 377-588)”, the EC50 in assay [1] amounted to 0.92 µg/mL.
As to “SARS-CoV RBD-Fc fusion protein (residues 318-510 of SARS-CoV S protein with a C-terminal hFc) (from UniProt P59594 318-510)”, the EC50 in assay [2] worked out at 0.96 µg/mL.
